PMC8042174

Each binder was assayed against FITC-labeled human GRK6A C-terminal 22 amino acid peptide, GRK6Act-22 (human) (assay: fluorescence polarisation; fluorescence anisotropy, direct saturation binding in solution; recombinant protein titrated to fixed FITC-GRK6Act-22 (0.4–1.0 μM); PBS pH 7.4, 0.1% BSA, 1 mM DTT, 23 °C; quadratic fit).

| Kd [µM] | Binder |
| --- | --- |
| 5.3 | recombinant full-length NHERF1 (natural protein) MSADAAAGAPLPRLCCLEKGPNGYGFHLHGEKGKLGQYIRLVEPGSPAEKAGLLAGDRLVEVNGENVEKETHQQVVSRIRAALNAVRLLVVDPETDEQLQKLGVQVREELLRAQEAPGQAEPPAAAEVQGAGNENEPREADKSHPEQRELRPRLCTMKKGPSGYGFNLHSDKSKPGQFIRSVDPDSPAEASGLRAQDRIVEVNGVCMEGKQHGDVVSAIRAGGDETKLLVVDRETDEFFKKCRVIPSQEHLNGPLPVPFTNGEIQKENSREALAEAALESPRPALVRSASSDTSEELNSQDSPPKQDSTAPSSTSSSDPILDFNISLAMAKERAHQKRSSKRAPQMDWSKKNELFSNL |
| 3.6 | recombinant N1P2-GAGA (natural protein) MSADAAAGAPLPRLCCLEKGPNGYGFHLHGEKGKLGQYIRLVEPGSPAEKAGLLAGDRLVEVNGENVEKETHQQVVSRIRAALNAVRLLVVDPETDEQLQKLGVQVREELLRAQEAPGQAEPPAAAEVQGAGNENEPREADKSHPEQRELRPRLCTMKKGPSGAGANLHSDKSKPGQFIRSVDPDSPAEASGLRAQDRIVEVNGVCMEGKQHGDVVSAIRAGGDETKLLVVDRETDEFFKKCRVIPSQEHLNGPLPVPFTNGEIQKENSREALAEAALESPRPALVRSASSDTSEELNSQDSPPKQDSTAPSSTSSSDPILDFNISLAMAKERAHQKRSSKRAPQMDWSKKNELFSNL |
| > 100 | recombinant N1P1-GAGA (natural protein) MSADAAAGAPLPRLCCLEKGPNGAGAHLHGEKGKLGQYIRLVEPGSPAEKAGLLAGDRLVEVNGENVEKETHQQVVSRIRAALNAVRLLVVDPETDEQLQKLGVQVREELLRAQEAPGQAEPPAAAEVQGAGNENEPREADKSHPEQRELRPRLCTMKKGPSGYGFNLHSDKSKPGQFIRSVDPDSPAEASGLRAQDRIVEVNGVCMEGKQHGDVVSAIRAGGDETKLLVVDRETDEFFKKCRVIPSQEHLNGPLPVPFTNGEIQKENSREALAEAALESPRPALVRSASSDTSEELNSQDSPPKQDSTAPSSTSSSDPILDFNISLAMAKERAHQKRSSKRAPQMDWSKKNELFSNL |
| 26.1 | pSer162-PDZ2 (133–300 aa) (domain or fragment, phosphoserine at 162) NENEPREADKSHPEQRELRPRLCTMKKGPSGYGFNLHSDKSKPGQFIRSVDPDSPAEASGLRAQDRIVEVNGVCMEGKQHGDVVSAIRAGGDETKLLVVDRETDEFFKKCRVIPSQEHLNGPLPVPFTNGEIQKENSREALAEAALESPRPALVRSASSDTSEELNSQ |
| 51.3 | WT PDZ2 domain (133–300 aa) of NHERF1 (domain or fragment) NENEPREADKSHPEQRELRPRLCTMKKGPSGYGFNLHSDKSKPGQFIRSVDPDSPAEASGLRAQDRIVEVNGVCMEGKQHGDVVSAIRAGGDETKLLVVDRETDEFFKKCRVIPSQEHLNGPLPVPFTNGEIQKENSREALAEAALESPRPALVRSASSDTSEELNSQ |
| 43.4 | S162A-PDZ2 (133–300 aa) (domain or fragment) NENEPREADKSHPEQRELRPRLCTMKKGPAGYGFNLHSDKSKPGQFIRSVDPDSPAEASGLRAQDRIVEVNGVCMEGKQHGDVVSAIRAGGDETKLLVVDRETDEFFKKCRVIPSQEHLNGPLPVPFTNGEIQKENSREALAEAALESPRPALVRSASSDTSEELNSQ |

The binders below were run against FITC-labeled human GRK6A C-terminal 22 amino acid peptide, GRK6Act-22 (human) (assay: fluorescence polarisation; fluorescence anisotropy saturation binding in solution; increasing amounts of recombinant protein added to a fixed concentration of FITC-labeled GRK6Act-22 (0.4-1.0 uM); PBS pH 7.4, 0.1% BSA, 1 mM DTT; 23 °C; 96-well format; quadratic fit).

| Kd [µM] | Binder |
| --- | --- |
| 6.6 | NHERF1 PDZ1 domain (1-140 aa), isolated (domain or fragment) MSADAAAGAPLPRLCCLEKGPNGYGFHLHGEKGKLGQYIRLVEPGSPAEKAGLLAGDRLVEVNGENVEKETHQQVVSRIRAALNAVRLLVVDPETDEQLQKLGVQVREELLRAQEAPGQAEPPAAAEVQGAGNENEPREA |
